Measured values as given in patent publication US20050020519A1, “Modulation of insulin-regulated aminopeptidase (irap)/angiotensin iv (at4) receptor activity” (priority 2001, published 2005).
“Also recorded” adds a separate entry of the source. Like-named read-outs stand apart in the source and are kept apart here. Where no end group is shown, it is not given here. [ ]: non-standard residue; d: D form. Cyt = cystine residue, as named in the source; pGlu = O=C1CC[C@@H](C(=O)O)N1

Key:
IRAP [1] = biological target: T1, IRAP (Homo sapiens, UniProt Q9UIQ6); assay: IRAP enzymatic activity, hydrolysis of L-leucine-β-naphthylamide (fluorescence); type: biochemical
T1 construct: expressed in transfected cells; host or cells: HEK 293T cells (solubilised membrane protein)
Excerpt: For example, Hek293 cells stably transfected with a eukaryotic expression vector expressing the AT4 receptor gene may be utilized. An example of this is the vector pcDNA-3 containing the cDNA encoding the full length AT4 receptor. Two assay systems are used, one for each spliced variant of the human AT4 receptor gene. The assay system involves the measurement of the rate of hydrolysis of L-leucyl β-naphthylamide by the AT4 receptor. The rate of hydrolysis by the transfected cells is followed by recording the increase in fluorescence (excitation at 340 nm, emission at 410 nm) using a purpose-designed fluorimeter. Test compounds are added to the assay system, and their effects on the hydrolysis of L-leucyl β-naphthylamide are a direct indicator of their modulation of AT4 receptor activity.
Crude membranes were prepared from HEK 293 cells stably transfected with pcDNA-3 containing the cDNA encoding the full length AT4 receptor/IRAP, using the same method as that described for bovine adrenal membranes. The membranes were solubilised in 50 mM Tris-HCl containing 1% Triton-X100 at 4° C. for 16 h. The IRAP enzymatic activity was determined by the hydrolysis of a synthetic substrate, L-leucine-β-naphthylamide, and monitored by the release of a fluorogenic product on a spectrophotometer set at excitation 340 nm and emission 410 nm. One hundred μM of the substrate was added to 10 μg of solubilised membranes, and the increase in fluorescence monitored for 10 min.
Samples were assayed 2-3 times in triplicate, except controls, which were performed 5 times in triplicate.

IRAP [2] = biological target: T1, IRAP; assay: Degradation of peptides by IRAP expressed in HEK 293T cells, HPLC with mass spectrometric detection; type: biochemical; settings: for Substrate disappearance over 4 hr: 37° C., hIRAP transfected HEK 293T membranes, (=UT) equals untransfected control cells; for Products Identified: incubation at 37° C. with solubilized membrane protein from hIRAP transfected HEK 293T cells; for cleavage by IRAP: up to 6 hr
Experimental: At each time point (0, 0.5, 1, 2, 4 & 6 hr), an aliquot containing 5 μg peptide was removed, and the reaction stopped by addition of 4 volumes methanol/1% trifluoroacetic acid (TPA). Samples were dried on a centrifugal vacuum evaporator prior to HPLC analysis with on-line mass spectrometric detector. […] Fragments were identified following mass spectral analysis, using Agilent ChemStation deconvolution software.

IRAP (AT4 receptor) = biological target: T2, IRAP (AT4 receptor) (Homo sapiens, UniProt Q9UIQ6); assay: ^125I-Nle^1 Ang IV binding to membranes of HEK 293 cells transfected with IRAP cDNA
T2 construct: expressed in transfected cells; host or cells: HEK 293 cells (membranes)
Excerpt: The amount of radioligand bound to the membranes from HEK 293 cells transfected with IRAP cDNA was expressed as a percentage of radioligand bound to membranes from HEK 293 cells transfected with control plasmids.

rats = settings: rat, in vivo, iv; cited from earlier work
[3] = biological target: human insulin-regulated aminopeptidase (IRAP) / angiotensin IV (AT4) receptor (human) (UniProt Q9UIQ6); assay: cell-based or functional assay
AT4 receptor = biological target: T3, AT4 receptor (Bos taurus, UniProt F1N1Q8); assay: AT4 radioreceptor assay, ^125I-Ang IV binding to bovine adrenal membranes
T3 construct: from tissue; host or cells: bovine adrenal gland membranes
T3 sequence (F1N1Q8 1-1022): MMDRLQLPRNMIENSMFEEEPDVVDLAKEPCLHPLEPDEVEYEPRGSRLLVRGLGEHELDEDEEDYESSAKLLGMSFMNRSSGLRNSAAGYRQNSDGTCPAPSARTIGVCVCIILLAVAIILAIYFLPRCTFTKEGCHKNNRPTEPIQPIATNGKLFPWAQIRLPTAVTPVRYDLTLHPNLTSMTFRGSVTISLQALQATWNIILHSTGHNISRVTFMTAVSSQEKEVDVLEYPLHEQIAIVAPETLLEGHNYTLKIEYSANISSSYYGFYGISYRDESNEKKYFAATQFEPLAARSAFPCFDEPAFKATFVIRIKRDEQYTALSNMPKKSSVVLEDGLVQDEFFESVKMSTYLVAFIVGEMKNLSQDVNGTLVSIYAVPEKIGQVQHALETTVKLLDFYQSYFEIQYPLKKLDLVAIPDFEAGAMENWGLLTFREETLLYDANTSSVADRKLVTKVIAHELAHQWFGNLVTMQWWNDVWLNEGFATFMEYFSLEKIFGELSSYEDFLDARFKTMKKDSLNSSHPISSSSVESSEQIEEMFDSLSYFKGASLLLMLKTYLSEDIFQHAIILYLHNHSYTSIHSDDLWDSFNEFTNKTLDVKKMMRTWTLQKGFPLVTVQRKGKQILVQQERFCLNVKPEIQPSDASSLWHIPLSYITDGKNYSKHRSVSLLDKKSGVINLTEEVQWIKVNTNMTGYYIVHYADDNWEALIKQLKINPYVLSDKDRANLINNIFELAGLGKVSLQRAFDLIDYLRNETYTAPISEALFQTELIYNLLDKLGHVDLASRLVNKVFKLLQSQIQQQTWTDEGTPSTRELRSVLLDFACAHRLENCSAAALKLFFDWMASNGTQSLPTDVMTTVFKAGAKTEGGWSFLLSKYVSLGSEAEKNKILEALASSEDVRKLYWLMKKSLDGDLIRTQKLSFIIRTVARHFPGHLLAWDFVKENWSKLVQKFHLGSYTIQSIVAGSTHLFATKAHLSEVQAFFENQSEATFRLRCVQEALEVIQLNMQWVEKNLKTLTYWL
Experimental: The AT4 radioreceptor assay was used to screen the sheep brain extracts for AT4 receptor modulatory activity. The membranes were prepared using bovine adrenal glands obtained from the abattoir. The adrenals were diced, homogenized in ice-cold hypotonic buffer (50 mM Tris, 5 mM EDTA, pH 7.4) and centrifuged for 10 min at 500 g. […] The resulting pellets were re-homogenized in hypotonic buffer. […] The samples were incubated for 2 h at 37° C., and the bound ligand was separated on Whatman GF/B glass fibre filters.

[4] = biological target: human insulin-regulated aminopeptidase (IRAP) / angiotensin IV (AT4) receptor (human) (UniProt Q9UIQ6); assay: radioligand displacement of 125I-Nle-Ang IV
[5] = biological target: human insulin-regulated aminopeptidase (IRAP) / angiotensin IV (AT4) receptor (human) (UniProt Q9UIQ6); assay: radioligand binding, HEK 293 and CHO cells transfected with IRAP cDNA
[6] = biological target: human insulin-regulated aminopeptidase (IRAP) / angiotensin IV (AT4) receptor (human) (UniProt Q9UIQ6); assay: competitive inhibition of L-leucine-β-naphthylamide cleavage by solubilised membranes of IRAP-transfected HEK 293 cells; Ki from IC50=Ki(1+[S]/Km)
3T3L1 cells = assay: 2-deoxyglucose uptake in differentiated 3T3L1 adipocytes
Experimental: The effect of IRAP inhibitors on the regulation of glucose uptake was determined in 3T3L1 cells. 3T3L1 fibroblasts were differentiated by the addition of DMEM containing 5% fetal calf serum, 4 μg/ml insulin, 0.25 mM dexamethasone and 0.5 mM 3-isobutyl-1-methyl-xanthine. […] The reaction was stopped after 10 min by washing the cells in PBS. The cells were then solubilized in 0.5 N NaOH and counted.

[7] = biological target: human insulin-regulated aminopeptidase (IRAP) / angiotensin IV (AT4) receptor (human) (UniProt Q9UIQ6); assay: cell-based or functional assay; remark: listed apart in the source

T1 sequence (Q9UIQ6 whole entry): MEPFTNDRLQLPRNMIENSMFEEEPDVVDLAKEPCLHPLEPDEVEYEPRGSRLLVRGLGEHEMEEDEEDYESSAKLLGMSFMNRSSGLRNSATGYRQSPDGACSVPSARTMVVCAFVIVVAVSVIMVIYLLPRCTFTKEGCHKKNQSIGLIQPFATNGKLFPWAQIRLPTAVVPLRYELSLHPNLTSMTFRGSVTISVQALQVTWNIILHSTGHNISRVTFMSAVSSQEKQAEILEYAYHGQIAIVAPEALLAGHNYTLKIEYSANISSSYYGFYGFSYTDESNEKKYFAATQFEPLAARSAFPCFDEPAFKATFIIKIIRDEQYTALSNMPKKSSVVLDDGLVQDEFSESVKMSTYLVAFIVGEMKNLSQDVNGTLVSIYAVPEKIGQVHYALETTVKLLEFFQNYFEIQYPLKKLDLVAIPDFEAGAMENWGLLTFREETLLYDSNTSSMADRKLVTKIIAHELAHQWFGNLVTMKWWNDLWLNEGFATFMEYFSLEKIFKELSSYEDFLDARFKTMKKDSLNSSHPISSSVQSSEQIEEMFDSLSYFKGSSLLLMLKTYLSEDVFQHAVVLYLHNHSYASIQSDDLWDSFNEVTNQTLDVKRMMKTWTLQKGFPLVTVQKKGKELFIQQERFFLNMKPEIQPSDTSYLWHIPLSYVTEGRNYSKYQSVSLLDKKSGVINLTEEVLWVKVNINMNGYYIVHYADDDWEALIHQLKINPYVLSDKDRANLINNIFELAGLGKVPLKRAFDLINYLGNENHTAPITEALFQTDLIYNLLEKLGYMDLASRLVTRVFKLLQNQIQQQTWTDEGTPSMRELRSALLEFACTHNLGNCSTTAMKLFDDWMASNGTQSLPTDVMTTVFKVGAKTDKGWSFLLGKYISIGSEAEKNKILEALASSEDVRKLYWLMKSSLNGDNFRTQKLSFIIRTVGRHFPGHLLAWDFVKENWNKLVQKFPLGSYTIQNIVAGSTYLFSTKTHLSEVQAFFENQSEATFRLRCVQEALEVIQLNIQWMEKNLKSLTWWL
human insulin-regulated aminopeptidase (IRAP) / angiotensin IV (AT4) receptor (human), sequence (Q9UIQ6 whole entry): as above
T2 sequence (Q9UIQ6 whole entry): as above

For `NC(=O)CC[C@@H]1NC(=O)[C@H](Cc2ccccc2)NC(=O)[C@H](Cc2ccc(O)cc2)NC(=O)[C@@H](N)CSSC[C@@H](C(=O)N2CCC[C@H]2C(=O)N[C@@H](CCCN=C(N)N)C(=O)NCC(N)=O)NC(=O)[C@H](CC(N)=O)NC1=O` [AVP, arginine-vasopressin], the IC50 (IRAP [1]) was greater than 40 µM, the “Substrate disappearance over 4 hr” value (IRAP [2]) was 58% and the “Products Identified” value (IRAP [2]) was “YFQNCytPRG-NH2; also recorded: FQNCytPRG-NH2”. For the same molecule, the “cleavage by IRAP” value (IRAP [2]) was “most rapidly cleaved”.

Molecule `CC(C)[C@H](N)CN[C@@H](Cc1ccc(O)cc1)C(=O)N[C@H](CN[C@@H](Cc1c[nH]cn1)C(=O)N1CCC[C@H]1C(=O)N[C@@H](Cc1ccccc1)C(=O)O)C(C)C` [Divalinal - Ang IV] has an IC50 (IRAP (AT4 receptor)) of 0.845 µM, an IC50 (IRAP [1]) of 4 µM and a Ki (IRAP [1]) of 2.25 µM. For the same molecule, the “type of inhibition of IRAP” value (IRAP [1]; Lineweaver-Burk analysis) was “competitive inhibition”, the “Substrate disappearance over 4 hr” value (IRAP [2]) was “None” and the “Products Identified” value (IRAP [2]) was “None”. The “cleavage by IRAP” value (IRAP [2]) was “no cleavage” and the “effect on the swim maze enhancement by Nle-angiotensin IV” value (rats) was “blocked”.

For `CC[C@H](C)[C@@H]1NC(=O)[C@H](Cc2ccc(O)cc2)NC(=O)[C@@H](N)CSSC[C@@H](C(=O)N2CCC[C@H]2C(=O)N[C@@H](CC(C)C)C(=O)NCC(N)=O)NC(=O)[C@H](CC(N)=O)NC(=O)[C@H](CCC(N)=O)NC1=O` [OXY, oxytocin], the “Substrate disappearance over 4 hr” value (IRAP [2]) was 37%, the “Products Identified” value (IRAP [2]) was “YIQNCytPLG-NH2” and the “cleavage by IRAP” value (IRAP [2]) was “most rapidly cleaved”.

Molecule `CC(C)C[C@@H](N)[C@H](O)C(=O)N[C@H](C(=O)N[C@H](C(=O)N[C@@H](CC(=O)O)C(=O)O)C(C)C)C(C)C` [amastatin] has an inhibition at 100 µM (IRAP [1]; 100 μM amastatin) of 25%.

Work on `CC(C)C[C@H](NC(=O)[C@@H](O)[C@H](N)Cc1ccccc1)C(=O)O` [bestatin] yielded an inhibition at 10 µM (IRAP [1]; 10 μM bestatin) of 60%.

In the case of Ang I: angiotensin peptide (DRVYIHPFHL), the “Substrate disappearance over 4 hr” value (IRAP [2]) is reported as “None”, the “Products Identified” value (IRAP [2]) is reported as “None” and the “cleavage by IRAP” value (IRAP [2]) is reported as “no cleavage”.

Work on “Angiotensin III (from UniProt P01019 26-32) (peptide)” yielded a Substrate disappearance over 4 hr [3] of 7%.

With “GnRH: peptide tested as potential IRAP substrate” the “Substrate disappearance over 4 hr” value (IRAP [2]) was “None”, the “Products Identified” value (IRAP [2]) was “None” and the “cleavage by IRAP” value (IRAP [2]) was “No cleavage”.

In the case of KYLPGPLQ, the Ki (AT4 receptor; bovine adrenal membranes, synthetic peptides, read-out: affinity in competing for ^125I-Ang IV binding) is reported as 0.001 to 0.005 µM.

With Met-enkephalin the “Substrate disappearance over 4 hr” value (IRAP [2]) was 65%, the “Products Identified” value (IRAP [2]) was “GGFM” and the “cleavage by IRAP” value (IRAP [2]) was “most rapidly cleaved”.

Work on “Neurotensin (from UniProt P30990 151-163) (peptide)” yielded a Substrate disappearance over 4 hr [3] of 22%.

With Nle^1-Ang IV (Nle-YIHPF) (peptide) the IC50 inhibition leucine β-naphthylamide [3] was 0.6 µM, the Substrate disappearance over 4 hr [3] was 16% and the IC50 [4] was 0.00332 µM. For the same molecule, the fold increase in specific binding sites over control cells [5] was 10 to 20 fold and the Ki [6] was 0.34 µM.

For VYPWT, the “AT4 receptor/IRAP binding activity of fragment” value (AT4 receptor; structure-activity study on LVVYPWTQRF) was “retained full AT4 receptor/IRAP binding activity”.

With “[pGlu^4Cyt^6]AVP(4-9) ([pGlu]N[Cyt]PRG; ends and bridges not checked; also: Cyt6: cystine at position 6, partner not given here) [pGlu^4Cyt^6AVP]” the “Substrate disappearance over 4 hr” value (IRAP [2]) was “None”, the “Products Identified” value (IRAP [2]) was “None” and the “cleavage by IRAP” value (IRAP [2]) was “No cleavage”.

In the case of acetylated AVP [AcAVP], the “Substrate disappearance over 4 hr” value (IRAP [2]) is reported as “None”, the “Products Identified” value (IRAP [2]) is reported as “None” and the “cleavage by IRAP” value (IRAP [2]) is reported as “No cleavage”.

For angiotensin II (DRVYIHPF) [Ang II], the “Substrate disappearance over 4 hr” value (IRAP [2]) was “None”, the “Products Identified” value (IRAP [2]) was “None” and the “cleavage by IRAP” value (IRAP [2]) was “no cleavage”.

For angiotensin III [Ang III], the “Substrate disappearance over 4 hr” value (IRAP [2]) was 7% (=UT) and the “Products Identified” value (IRAP [2]) was “RVYIHP”.

Work on “arginine-vasopressin (from UniProt P01185 20-28) (peptide)” yielded an IC50 of inhibition of L-leucine-β-naphthylamide cleavage [3] greater than 40 µM.

In the case of divalinal-Ang IV (peptide), the IC50 inhibition leucine β-naphthylamide [3] is reported as 4 µM.

For insulin, the “glucose uptake under insulin stimulation” value (3T3L1 cells; 0.7 nM insulin) was 13.5±2.6 pmol/min/well and the “glucose uptake under insulin stimulation” value (3T3L1 cells; 70 nM insulin) was 19.7±1.18 pmol/min/well.

With “oxytocin (from UniProt P01178 20-28) (peptide)” the Substrate disappearance over 4 hr [3] was 37%.

For sar^1Ile^8-Ang II, the “Substrate disappearance over 4 hr” value (IRAP [2]) was “None” and the “Products Identified” value (IRAP [2]) was “None”.

For “α-Endorphin (YGGFMTSEKSQTPLVT) [16 residues, first five identical to met-enkephalin]”, the “Substrate disappearance over 4 hr” value (IRAP [2]) was “None”, the “Products Identified” value (IRAP [2]) was “None” and the “cleavage by IRAP” value (IRAP [2]) was “not cleaved at all”.

In the case of “α-neo-Endorphin (YGGFLRKYPK) [opioid peptide, 10 residues]”, the “Substrate disappearance over 4 hr” value (IRAP [2]) is reported as 9%, the “Products Identified” value (IRAP [2]) is reported as “GGFLRKYPK,; also recorded: GFLRKYPK, FLRKYPK” and the “cleavage by IRAP” value (IRAP [2]) is reported as “at least three N-terminal residues were cleaved”.

With “α-neo-Endorphin (from UniProt P01213 175-184) (peptide)” the Substrate disappearance over 4 hr [3] was 9%.

Molecule YGGFM (peptide, UniProt P01210 100-104, looked up) [Met-enkephalin] has a Substrate disappearance over 4 hr [7] of 65%.
